Two molecules from publication PMC3825789 (Nature biotechnology, 2013) can be followed below.

Positions count from the first letter of the chain named.

The experiment deals with insulin (Homo sapiens (species ), UniProt P01308). Put plainly: ELISA.
insulin, sequence (P01308 whole entry, looked up): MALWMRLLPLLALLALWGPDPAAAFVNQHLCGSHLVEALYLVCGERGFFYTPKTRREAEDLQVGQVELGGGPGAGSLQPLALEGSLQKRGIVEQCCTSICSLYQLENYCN

B1: ibalizumab L chain mutant LM52 (antibody, V domains shown)
VH: QVQLQQSGPEVVKPGASVKMSCKASGYTFTSYVIHWVRQKPGQGLDWIGYINPYNDGTDYDEKFKGKATLTSDTSTSTAYMELSSLRSEDTAVYYCAREKDNYATGAWFAYWGQGTLVTVSS
VL: DIVMTQSPDSLAVSLGERVTMNCKSSQSLLYSTNQKNYLAWYQQKPGQSPKLLIYWANSTESGVPDRFSGSGSGTDFTLTISSVQAEDVAVYYCQQYYSYRTFGGGTKLEIK
Take B1: the binding result was “no binding”.

B2: ibalizumab (wild type) (antibody, V domains shown)
VH: B1 VH
VL: B1 VL with N58S, S59T, T60R
In the case of B2, the binding result was “no binding”.
